# Experimental data taken from patent US20240141072A1 (published 2024).
# Residue numbers refer to the chain shown, from its start.
# T1: biotinylated human DLL3 protein expressed as a human IgG1 fusion protein (human, UniProt Q9NYJ7 27-492, limits assumed, biotinylated)
# T1 sequence: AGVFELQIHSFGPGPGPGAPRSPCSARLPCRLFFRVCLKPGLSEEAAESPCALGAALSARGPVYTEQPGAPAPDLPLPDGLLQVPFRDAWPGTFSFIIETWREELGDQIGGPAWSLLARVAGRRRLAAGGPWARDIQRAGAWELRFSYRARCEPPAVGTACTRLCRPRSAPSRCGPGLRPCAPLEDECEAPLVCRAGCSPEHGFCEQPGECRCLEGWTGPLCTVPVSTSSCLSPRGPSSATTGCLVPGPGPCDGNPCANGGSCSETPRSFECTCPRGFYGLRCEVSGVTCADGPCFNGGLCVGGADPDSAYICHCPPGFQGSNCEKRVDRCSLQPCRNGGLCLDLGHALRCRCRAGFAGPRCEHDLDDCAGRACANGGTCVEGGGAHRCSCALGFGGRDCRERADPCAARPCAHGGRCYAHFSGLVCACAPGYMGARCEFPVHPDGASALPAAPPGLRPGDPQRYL
# B1: 3A03 anti-DLL3 trispecific protein (other)
# chain: EVQLVESGGGLVQPGGSLTLSCAASGSRVSFLSMAWYRQAPGKKRELVAGISRDGSTDYIDSVKGRFTISRDNAKNSVYLQMNSLRAEDTAVYYCYAYRWTTRRTYWGQGTLVTVSS
# notes: not shown: linker 1808, anti-albumin sdAb, linker 1808, anti-CD3 fragment, His6 1819
# B2: 3A05 anti-DLL3 trispecific protein (other)
# chain: B1 chain with R28S, R53E, D54A, T101R, R104Y
# notes: as for B1
# B3: 3B010 anti-DLL3 trispecific protein (other)
# chain: B1 chain with R28S, T101V, R104Y
# notes: as for B1
# B4: 3H01 anti-DLL3 trispecific protein (other)
# chain: B1 chain with A23V, R28S, S30K, R53G, D58T
# notes: as for B1
# B5: 3F05 anti-DLL3 trispecific protein (other)
# chain: B1 chain with R28K, R53T
# notes: as for B1
# B6: 3G02 anti-DLL3 trispecific protein (other)
# chain: B1 chain with R28S, R53A, S56R, T101R, R104Y
# notes: as for B1
# B7: 3D01 anti-DLL3 trispecific protein (other)
# chain: B1 chain with R28S, T101I, R104Y
# notes: as for B1
# B8: 3D03 anti-DLL3 trispecific protein (other)
# chain: B1 chain with R28S, S30V, R53A, T57M, T101R, R104Y
# notes: as for B1
# B9: 3G06 anti-DLL3 trispecific protein (other)
# chain: B1 chain with R28S, S30K, R53A, D58L
# notes: as for B1
# B10: 3B09 anti-DLL3 trispecific protein (other)
# chain: B1 chain with R28H, R53A, D54N, R104Y, T105A
# notes: as for B1
# B11: 3A06 anti-DLL3 trispecific protein (other)
# chain: B1 chain with S21R, R28K, R53A, I60V, T102R, R104Y
# notes: as for B1
# B12: 3C09 anti-DLL3 trispecific protein (other)
# chain: B1 chain with R28S, R53A, D58I, T101R, R104Y
# notes: as for B1
# B13: 3D010 anti-DLL3 trispecific protein (other)
# chain: B1 chain with R28S, V29K, R53A, D58S, R104Y
# notes: as for B1
# B14: 3B06 anti-DLL3 trispecific protein (other)
# chain: B1 chain with S27K, R28S, R53K, R104Y
# notes: as for B1
# B15: 3H09 anti-DLL3 trispecific protein (other)
# chain: B1 chain with G26K, R28S, R53A, R104A
# notes: as for B1
# B16: 3A010 anti-DLL3 trispecific protein (other)
# chain: B1 chain with R53A, D58L
# notes: as for B1
# B17: 3G07 anti-DLL3 trispecific protein (other)
# chain: B1 chain with R28S, T102S, R104Y
# notes: as for B1
# B18: 3B02 anti-DLL3 trispecific protein (other)
# chain: B1 chain with R28S, S30Q, R53A, D61N, T101R, R104Y
# notes: as for B1
# B19: 3B011 anti-DLL3 trispecific protein (other)
# chain: B1 chain with R28S, R53A, T57A, T101V, R104Y
# notes: as for B1
# B20: 3C03 anti-DLL3 trispecific protein (other)
# chain: B1 chain with R28S, S30R, D58V, R104G
# notes: as for B1
# B21: 3B05 anti-DLL3 trispecific protein (other)
# chain: B1 chain with A23V, R28S, S30K, R53A, D58T
# notes: as for B1
# B22: 3F09 anti-DLL3 trispecific protein (other)
# chain: B1 chain with R28S, S30R, T101G, R104Y
# notes: as for B1
# B23: 3G011 anti-DLL3 trispecific protein (other)
# chain: B1 chain with R53A, D58G, T101A, R104Y
# notes: as for B1
# B24: 3E011 anti-DLL3 trispecific protein (other)
# chain: B1 chain with R28K, R104Y, Y106F
# notes: as for B1
# B25: 3F011 anti-DLL3 trispecific protein (other)
# chain: B1 chain with R28S, R53T, T101R, R104Y
# notes: as for B1
# B26: 3C01 anti-DLL3 trispecific protein (other)
# chain: B1 chain with R28S, S30R, R53A, D54H, T101S, R104Y
# notes: as for B1
# B27: 3D09 anti-DLL3 trispecific protein (other)
# chain: B1 chain with R28S, F31R, R53A, D54N, D58T, R104Y, T105R
# notes: as for B1
# B28: 3E09 anti-DLL3 trispecific protein (other)
# chain: B1 chain with R28S, S30R, T101S, R104Y
# notes: as for B1
# B29: 3B01 anti-DLL3 trispecific protein (other)
# chain: B1 chain with R28S, R53G, R104Y
# notes: as for B1
# B30: 3E04 anti-DLL3 trispecific protein (other)
# chain: B1 chain with R28S, S30H, R104Y, T105R
# notes: as for B1
# B31: 3A08 anti-DLL3 trispecific protein (other)
# chain: B1 chain with R28S, S30G, R53A, D61R, T101R, R104Y
# notes: as for B1
# B32: 3H07 anti-DLL3 trispecific protein (other)
# chain: B1 chain with R53A, D58S, T101R, R104Y
# notes: as for B1
# B33: 3C08 anti-DLL3 trispecific protein (other)
# chain: B1 chain with R28S, S30K, R53L, T102G, R104Y
# notes: as for B1
# B34: 3E02 anti-DLL3 trispecific protein (other)
# chain: B1 chain with R28G, S30R, R53P, T102R, R104Y
# notes: as for B1
# B35: 3F010 anti-DLL3 trispecific protein (other)
# chain: B1 chain with G26Y, R28S, F31R, R53A, D58V, R104N
# notes: as for B1
# B36: 3G010 anti-DLL3 trispecific protein (other)
# chain: B1 chain with R28S, R53V, T101R, R104Y
# notes: as for B1
# B37: 3F08 anti-DLL3 trispecific protein (other)
# chain: B1 chain with R53A, D58L, T101H, R104Y
# notes: as for B1
# B38: 3A04 anti-DLL3 trispecific protein (other)
# chain: B1 chain with R28Q, R104Y, T105I
# notes: as for B1
# B39: 3D02 anti-DLL3 trispecific protein (other)
# chain: B1 chain with R28S, S30R, T101I, R104Y
# notes: as for B1
# B40: 3D011 anti-DLL3 trispecific protein (other)
# chain: B1 chain with R28S, F31R, R53A, T57R, R104Y, T105K
# notes: as for B1
# B41: 3G08 anti-DLL3 trispecific protein (other)
# chain: B1 chain with R53K, R104V
# notes: as for B1
# B42: 3E01 anti-DLL3 trispecific protein (other)
# chain: B1 chain with R28S, S30K, R53A, D58M, T101H, R104Y
# notes: as for B1
# B43: 3C02 anti-DLL3 trispecific protein (other)
# chain: B1 chain with R28S, S30R, R53A, D58I, T101R, R104Y
# notes: as for B1
# B44: 3B07 anti-DLL3 trispecific protein (other)
# chain: B1 chain with R53A, D58T, R104Y
# notes: as for B1
# B45: 3A09 anti-DLL3 trispecific protein (other)
# chain: B1 chain with R28S, R53A, T57V, R104Y, T105I
# notes: as for B1
# B46: 3D08 anti-DLL3 trispecific protein (other)
# chain: B1 chain with R28S, S30R, R53A, D54N, T102N, R104Y
# notes: as for B1
# B47: 3H03 anti-DLL3 trispecific protein (other)
# chain: B1 chain with R28S, S30R, R53T, Y98L, R104Y
# notes: as for B1
# B48: 3B04 anti-DLL3 trispecific protein (other)
# chain: B1 chain with R28N, R53A, D54R, R99H, R104Y
# notes: as for B1
# B49: 3H010 anti-DLL3 trispecific protein (other)
# chain: B1 chain with R28S, R53A, D58A
# notes: as for B1
# B50: 3E03 anti-DLL3 trispecific protein (other)
# chain: B1 chain with R28S, S30R, R53G, T101M, R104Y
# notes: as for B1
# B51: 3G04 anti-DLL3 trispecific protein (other)
# chain: B1 chain with A23V, S27T, R28S, R53A, D58I
# notes: as for B1
# B52: 3D05 anti-DLL3 trispecific protein (other)
# chain: B1 chain with R28S, S30R, R53A, T102R, R104Y
# notes: as for B1
# B53: 3C05 anti-DLL3 trispecific protein (other)
# chain: B1 chain with A23V, S27T, R28S, R53A, D58T
# notes: as for B1
# B54: 3F06 anti-DLL3 trispecific protein (other)
# chain: B1 chain with R53A, D58S, T101A, R104Y
# notes: as for B1
# B55: 3G09 anti-DLL3 trispecific protein (other)
# chain: B1 chain with R28S, F31V, R53A, D61G, R104T
# notes: as for B1
# B56: 3C011 anti-DLL3 trispecific protein (other)
# chain: B1 chain with R28S, S30R, R53A, D54H, T101R, R104Y
# notes: as for B1
# B57: 3G01 anti-DLL3 trispecific protein (other)
# chain: B1 chain with R28S, R53A, D58L, R104Y, T105A
# notes: as for B1
# B58: 3C06 anti-DLL3 trispecific protein (other)
# chain: B1 chain with S27T, R28S, M34I, R53A, D61A, T101R, R104Y
# notes: as for B1
# Molecular target: T1, biotinylated human DLL3 protein …
# Experiment: Octet BLI, single 50 nM
# Outline: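 Affinities reflect binding of the trispecific constructs, supplied as conditioned medium of known protein concentration rather than purified material, to immobilised human DLL3 fusion protein.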
row,Kd,Binder
1,12 nM,B1
2,15 nM,B2
3,12 nM,B3
4,9 nM,B4
5,7.5 nM,B5
6,20 nM,B6
7,10 nM,B7
8,11 nM,B8
9,12 nM,B9
10,20 nM,B10
11,16 nM,B11
12,7.8 nM,B12
13,14 nM,B13
14,15 nM,B14
15,14 nM,B15
16,12 nM,B16
17,13 nM,B17
18,12 nM,B18
19,9 nM,B19
20,4.9 nM,B20

row,Kd,Binder
1,7.2 nM,B21
2,12 nM,B22
3,17 nM,B23
4,11 nM,B24
5,7.1 nM,B25
6,14 nM,B26
7,32 nM,B27
8,10 nM,B28
9,10 nM,B29
10,11 nM,B30
11,12 nM,B31
12,13 nM,B32
13,5.9 nM,B33
14,12 nM,B34
15,4.4 nM,B35
16,6.9 nM,B36
17,14 nM,B37
18,9.2 nM,B38
19,12 nM,B39
20,5.3 nM,B40

row,Kd,Binder
1,12 nM,B41
2,16 nM,B42
3,9.1 nM,B43
4,7.3 nM,B44
5,6.3 nM,B45
6,17 nM,B46
7,9.9 nM,B47
8,24 nM,B48
9,8.6 nM,B49
10,20 nM,B50
11,8.8 nM,B51
12,16 nM,B52
13,8.2 nM,B53
14,9.9 nM,B54
15,7.3 nM,B55
16,14 nM,B56
17,8.2 nM,B57
18,10 nM,B58
